Assay: yeast display, Sf9 membrane polyspecificity reagent, FACS + sequencing; frameworks hold sequencing errors
Summary of the method: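 A nanobody's polyreactivity label depends on the gate it was sorted from. Yeast display cells were stained with 10% biotinylated, detergent-solubilized Sf9 membrane reagent for 1 hour at 4 °C, enriched on streptavidin microbeads and sorted by FACS. The low and high (top ~1%) gates were set on anti-HA fluorescence for expression and streptavidin fluorescence for reagent binding.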

Row | Sequence | polyreactivity (PSR sort gate)
1 | QVQLVESGAGLVQAGGSLRLSCAASGNIFRFYAMGWYRQAPGKERELVAAISYNGGRTYYADSVKGRFTISRDNAKNTVYLQMNILKPEDTAVYYCNAAGRDDAYDYWGQGTQVTVAS | high polyreactivity
2 | QVQLVESGGGLVQAGGSLRLSCAASGRTFLRNAMGWYRQAPGKERELVAAISWRGGSTYYADSLKGRFTISRDNAKNTVYLQMNSLKPEDTAVYYCNARDGLASDWGQGTQVTVSS | high polyreactivity
3 | QVQLVESGGGLVQAGGSLRLSCAASGFTFYLNAMGWYRQAPGKERELVAAISYSDGSTYYADSVKGRFTISRDNAKNTVYFQMNSLKPEDSAVYYCDADTTDPGGAFQLKDYWGQGTQVTVSS | high polyreactivity
4 | QVQLVESGGGLVQAGGSLSLSCAASGSTFVIYAMGWYRQAPGKERELVASIRGRTGSTYNADSVKGRFTISRDNAKNTVYLQMNSLKPEDTAVYYCAAKPGYKSKMDYWGQGTQVSVSS | high polyreactivity
5 | QVQLVESGGGLVQAGGSLRLSCAASGSTFYRNAMGWYRQAPGKERAFVAAISFRGGGTYADSVKGRFTISRDNAKNTVYLQMNSLKPEDTAVYYCAADHLSYPRRYEYWGQGTQVTVSS | low polyreactivity
6 | QVQLVESGGGLVQAGGSLRLSCAASGFTFKYYAMGWYRQAPGKERELVAAISSGVSTNYADSVKGRFTISRDNAKNTVYLQMNSLKPEDTAVYYCNAEVFWWDQWYDYWGQGTQVTVSS | high polyreactivity
7 | QVQLVESGGGLVQAGGSLRLSCADSGSIFIANAMGWYRPAPGKERELVAAIDSGGSTNYADSVKGRFTSSRDNAKNTVYLQMNSLKPEDTAVYYCAADGTLTAPGGDYWGQGTQVTVSS | high polyreactivity
8 | QVQLVESGGGLVQAGGSLRLSYAASGFTFTGYALGWYRQAPGKARELVAAISQSGGSTYADSVKGRFTISRDNAKNTVYLQMNSLKPEDTAVYYCAAVWFLLTEYDYWGQGTQVTVSS | low polyreactivity
9 | QVQLVESGGGLVQAGGSLRLSCSASGFTFDSYAMGWYRQAPGKERELVAAITSDGSTYYADSVKGRFTISRDNAKNTVYLQMNSLKPEDTAVYYCAADGRYFRAVFRLYDYWGQGTQVTVSS | low polyreactivity
10 | QVQLVESGGGLVQAGGSLRLSSAASGFTLYYYTMGWYRQAPGKERELVAAITSGGDTYYADSVKGRFTISRDNAKNTVYLHMHSLKPEDTAVYYCAADYGTQYGEYTYYDYDYWGKGTQVTVSS | low polyreactivity
11 | QVQLVETGGGLVQAGGSLRLSCAASGSIFDWYAMGWYRQAPGKEGELVAAISSGDSTYYADSVKGRFTISRDNAKNTVYLKMNSLKPEDTAVYYCAAVTKLSGIRYNYWGQGTQVTVSS | low polyreactivity
12 | QVQLVESGGGLVQAGGSLRLSCAASGRIFRDNAMGGYRQAPGKERELVASISSRTGRTYYADSVKGRFTISRDNAKNTVYLQMNSLKPEDTAVYYCAAAFIYRGPGSLKFDYWGQGTQVTVSS | low polyreactivity
13 | QVQLVASGGGLVQAGGSLRLSCAASGSIFSYYTMGWYSQAPGKERELVASISRSGGRTNYADSVKGRFTISRDNAKNTVYLQMNSLKPEDTAVYYCKTERWGPYPHKRYNYWGQGTQVTVSS | high polyreactivity
14 | QVQLVESGGGLVQAGVSLRLSCHASGSIFYYNTMGWYRQSPGKERELVATISSDGGTNYADSVKGRFTISRDNAKYTVYLQMNSLKPEDTAVYYCAKDGSNRLALPAWDYNYWGQGTQVTVSS | low polyreactivity
15 | QVQLVESGGGLVQAGGSLRLSCAASGRIGYYVMGWYRQAPGKERELVAAISRSGDSTYYADSVKGRFTISRDNAKNTVYLQMNSLKPEDTAVYYCAAASGWRYFYKYDYWGQGTQVTVSS | high polyreactivity
16 | QVQLVESGGGLVQAGGSLRLSCAASGLTFIFYAMGWYRPAPGKERELVAAISVSGGSTYYADSVKGRFTISRDNAKNTVYLQMNSLKPEDTAVYYCAADREHFATYGPHMDYWGQGTQVTVSS | low polyreactivity

Row | Sequence | polyreactivity (PSR sort gate)
17 | QVQLVESGGGLVHAGGSLRLSCAASGSIFYRNVMGWYRQAPGKERELVAAISRSGGSTYYADSVKGRFTISRDNAKNTVYLQMNSLKPEDTAVYYCAVRYSPFYYWGQGTQVTVSS | high polyreactivity
18 | PVQLVESGGGLVQAGGSLRLICAASGRIFEINAMGWYRQAPGKERELFAAITRGGRTYYADSVKGRFTSSRDNAMNTVYLQMTSLKPEDTAVYYCAAYGHIRSGFDCVDYWGQGTQVTVSS | high polyreactivity
19 | QVQLVESGGGLVQAGGSLRLSCAASGSTLYTYAMGWYRPAPGKERELVAAIRLSGGRTYYADSVKGRFTISRDNAKNTVYLQMNSLKPEDTAVYYCAVDWSYSRYDYWGQGTQVTVSS | high polyreactivity
20 | QVQLVESGGGLVQAGGSLRLSCAASGFIFYSYAMRWYRQDPGQERELVAAISTSGGSSYYADSVKGRFTMSRDNAKNTVYLQMNSLKPEDTAVYYCATLSAFYPFAYDYWGQGTQVTVSS | high polyreactivity
21 | QVQLVESGGGLVQAGGSLRLSCAASGSIFYINAMGWYRQAPGKERELVAAITSGGTYYADSVKGRFTISRDTAKNTVYLQMNSLKPEDTAVYYCAADREGTPLFDYWGQGTQVTVSS | low polyreactivity
22 | QVQLEESGGGLVQAGGSLRLSCAASGSIFSYNAMGWYRQAPGKERELVAAISRGSGSTYYADSVKGRFTISRDNAKNTVYLQMNSLKPEDTAVYYCATRSIRVLPDVYRKADDYWGQGTQVTVSS | low polyreactivity
23 | QVQLQESGAGLVQAGGSLRLCCAASGSIFYVYGMGWYRQAPGKERELVAGINAGTNTNYADSVRGRFTISRDNAKNTVHLQMNSLKPEDTAVYYCAADGNGYQAHEYWGQGTQVTVSS | high polyreactivity
24 | QVQLVESGGGLVQAGGSLRLSCAASGRTFSQYDMGWYRQAPGKERELVAAISWSGGRTYYADSVKGRFTISRDNAKNTVYLQMNSLKPEDTAVYYCAAAYSWIRSPYNDPNRGYDYWGQGTQVTVSS | low polyreactivity
25 | QVQLVESGGGLVQAGVSLRLSCAASGSTFYYYAMGWYRQAPGKERELVATISSGSSTNYADSVKGRFTISRDNAKNTVYLQMNSLKPEDTAVYYCAADRWYITLSIDATISYDYWGQGTQVTVSS | low polyreactivity
26 | QVQLVVSGGGLVQAGGSLRLSCAASGRFFGYYARGWYRQAPGEERELVAAITRGGSTNYADSVKGRFTISRDNAKNTVYLQMNSLKPEDTAVYYCNARRYRPGTASYDYWGQGTQVTVSS | high polyreactivity
27 | QVQLVESGGGLVQAGGSLRLSCAASGRTFGWYTMGWYRQAPGKEREFVAAISSSDTSTYYADSVKGRFTISRDNAKNTVYLQMNSLKPEDTAVYYCAADPPSWRWFVGYSYDYWGQGTQVTVSS | low polyreactivity
28 | QVQLVESGGGLVQAGGSLRLSCAASGRTFNWYAMGWYRQTPGKERELVAGITRIGTTTYYADSVKGRFTISRDNAKITVYLQMNSLKPEDTAVYYCASDQRKLGADFDSWGQGTQVTVSS | high polyreactivity
29 | QVQLVESGGGLVQAGGSLRLSCAASGRTFFRNAMGWDRQEPGSERELVAGISRSGGSTYYADSVKGRFTISRDNAKNTGYLQMNSLKPEDTAVYYCAAALYPYPGYEYWGQGTQVTVSS | high polyreactivity
30 | QVLLQETGGGLVQAGGSLRLSCAASGTISTDIRMGWYRLAPGKESEFVASIDCCSTTYYADSVKGRFTISRDNAKYTVYLQMNSLKPEDTAMYYCAAREATEFYLYYWGQGTQVTVSS | low polyreactivity
31 | QVQLVESGGGLVQAGGSLRLSCAASGLISYHYAMGWYRQAPGKERELVASISYTGGSTFYADSVKGRFTISRDNAKNTVYLQMNSLKPEDTAVYYCAAYRIWRPSYYYWGQGTQVTVSS | high polyreactivity
32 | QVHLVESGGGLVQAGGSLRLSCAASGSIFGYYTMGWYRQAPGKERELVAGIDFITTSTYYADSVKGRFTISRDNAKNTVSLQMNSQKPEDTAVYYCAAYGPLTGYDYWGQGTQVTVSS | low polyreactivity
